Laboratory results from patent publication US20090214547A1 (published 2009).

Molecular target: T1, Pneumolysin, 57 kDa (full length w/His-tag) (Streptococcus pneumoniae, UniProt Q04IN8 2-471)
T1 construct: also called Antigen; PLY
Assay: SPR, Mab captured on Protein-G chip

T1 sequence (Q04IN8 2-471): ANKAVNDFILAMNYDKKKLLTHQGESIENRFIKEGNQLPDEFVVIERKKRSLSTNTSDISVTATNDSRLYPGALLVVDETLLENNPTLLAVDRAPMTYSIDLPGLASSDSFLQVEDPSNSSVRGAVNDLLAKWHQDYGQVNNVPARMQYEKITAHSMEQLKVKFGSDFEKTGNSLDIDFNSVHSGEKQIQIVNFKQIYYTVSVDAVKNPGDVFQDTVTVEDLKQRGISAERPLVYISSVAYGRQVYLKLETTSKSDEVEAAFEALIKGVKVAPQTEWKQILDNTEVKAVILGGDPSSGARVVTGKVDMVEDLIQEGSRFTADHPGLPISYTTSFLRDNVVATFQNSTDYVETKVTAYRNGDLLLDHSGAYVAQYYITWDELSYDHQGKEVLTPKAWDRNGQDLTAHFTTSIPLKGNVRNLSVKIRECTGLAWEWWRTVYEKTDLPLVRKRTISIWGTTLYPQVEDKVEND

B1: 26-5F12.1 (antibody, V domains shown)
VH: VKLQESGAEVKKPGASVKVSCTASGYIFTSYAIHWVRQAPGQRLEWMGWINAGYGNTKYSQKFQGRVSITRDKSASTAYMELSSLRSEDTAVYYCARRGQQLAFDYWGQGTTVTVSS
VL: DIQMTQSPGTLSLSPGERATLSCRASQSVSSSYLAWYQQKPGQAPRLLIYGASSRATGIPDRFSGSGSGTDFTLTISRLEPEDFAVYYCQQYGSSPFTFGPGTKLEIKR
notes: also called PdB26-5F12.1
  Kd: 0.82 nM
  koff: 0.00043 s⁻¹
  kon: 530000 M⁻¹ s⁻¹
